Measurements: US8043804B2, “DBC1, a novel native inhibitor of anti-aging protein SIRT1” (The Trustees of Columbia University in the City of New York, priority 2007, dated 2011)

What was measured:
Type in all cases: biochemical
SIRT2 = molecular target: T1, SIRT2 (Homo sapiens, UniProt Q8IXJ6); assay: In vitro deacetylation assay, acetylated tubulin as substrate of purified SIRT2; conditions: nicotinamide 5 mM, increasing amounts of DBC1 (FIG. 3d)
T1 construct: made in house; host or cells: transfected mammalian cells (293 cells are named for the Flag-SIRT constructs)
T1 sequence (Q8IXJ6 1-389): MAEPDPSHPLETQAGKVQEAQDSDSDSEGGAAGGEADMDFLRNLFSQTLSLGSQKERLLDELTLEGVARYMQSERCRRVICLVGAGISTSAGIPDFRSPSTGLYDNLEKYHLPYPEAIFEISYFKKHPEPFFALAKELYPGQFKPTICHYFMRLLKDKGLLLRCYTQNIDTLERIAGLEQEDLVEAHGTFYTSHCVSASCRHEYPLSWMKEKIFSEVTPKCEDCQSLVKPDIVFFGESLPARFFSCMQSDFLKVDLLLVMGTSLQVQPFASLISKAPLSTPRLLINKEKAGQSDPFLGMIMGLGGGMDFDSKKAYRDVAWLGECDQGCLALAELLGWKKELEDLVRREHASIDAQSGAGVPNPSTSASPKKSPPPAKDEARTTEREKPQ

SIRT1 = molecular target: T2, SIRT1 (Homo sapiens, UniProt Q96EB6); assay: In vitro deacetylation assay, acetylated p53 as substrate of purified Flag-SIRT1; conditions: purified system, 50 μM NAD, dose dependent, Western blot (FIG. 3c)
T2 construct: made in house
T2 sequence (Q96EB6 1-747): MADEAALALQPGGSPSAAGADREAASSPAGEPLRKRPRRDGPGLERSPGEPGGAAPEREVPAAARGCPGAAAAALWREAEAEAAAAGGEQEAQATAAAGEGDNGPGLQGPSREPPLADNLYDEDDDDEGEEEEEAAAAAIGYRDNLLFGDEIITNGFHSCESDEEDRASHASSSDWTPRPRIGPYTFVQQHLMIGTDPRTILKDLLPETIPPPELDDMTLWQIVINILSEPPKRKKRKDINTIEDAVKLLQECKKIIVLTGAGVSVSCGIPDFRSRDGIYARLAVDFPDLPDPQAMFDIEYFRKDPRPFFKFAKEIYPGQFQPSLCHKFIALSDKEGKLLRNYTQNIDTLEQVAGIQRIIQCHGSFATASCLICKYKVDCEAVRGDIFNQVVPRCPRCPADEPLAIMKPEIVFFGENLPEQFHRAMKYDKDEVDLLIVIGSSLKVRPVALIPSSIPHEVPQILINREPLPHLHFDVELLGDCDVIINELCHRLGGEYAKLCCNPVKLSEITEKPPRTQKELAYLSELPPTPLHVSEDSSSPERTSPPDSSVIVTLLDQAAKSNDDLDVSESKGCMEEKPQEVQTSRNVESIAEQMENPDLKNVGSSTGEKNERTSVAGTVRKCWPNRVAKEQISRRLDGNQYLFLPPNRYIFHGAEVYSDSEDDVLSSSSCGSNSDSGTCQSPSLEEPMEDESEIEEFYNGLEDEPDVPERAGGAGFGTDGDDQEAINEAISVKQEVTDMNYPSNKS
Experimental: FIG. 3. DBC1 inhibits SIRT1 mediated deacetylation of p53 (a) Fractionation of immunoprecipitated F-SIRT1 complex. 293 cells were transfected with Flag-tagged SIRT1 and Flag-SIRT1 complexes were subsequently purified by M2-immunoprecipitation in FLAG-lysis buffer. Flag-SIRT1 complex was eluted in 100 ul of elution buffer and half of the elution was fractioned by size-exclusion chromatography on a Sepherose12 Column on the SMART system. 10% of each fraction was analyzed by Western Blot for DBC1 (upper panel) and SIRT1 (lower panel). (b) DBC1 inhibits SIRT1 mediated deacetylation of p53 in vitro. […] The reactions were resolved on SDS-PAGE and analyzed by Western Blot using antibodies specific for acetylated p53, total p53 (DO-1), SIRT1 and DBC1. […] The reactions were resolved on SDS-Page and analyzed by Western Blot using antibodies specific for acetylated p53, total p53, SIRT1 and DBC1. […]
Although the deacetylase activity of SIRT1 is essential for its function, it is unknown how this activity is regulated. When purified Flag-SIRT1 complexes from human cells were analyzed by gel-filtration chromatography on a Superose 12 column (SMART system), SIRT1 and DBC1 polypeptides co-eluted in fraction 15 with an apparent molecular weight of 440 KDa (lane 4, FIG. 3a). […]

HDAC1 = HDAC1 (Homo sapiens, UniProt Q13547); assay: In vitro deacetylation of p53 by purified HDAC1 complex; conditions: purified HDAC1 complexes, increasing amounts of DBC1 (FIG. 9)
Experimental: FIG. 9. Effect of DBC1 on HDAC1 mediated p53 deacetylation in vitro. Purified HDAC1 complex was used to deacetylate p53 in vitro (lane 2). Increasing amounts of DBC1 were added in addition to HADC1 (lanes 3-4) to investigate whether DBC1 can inhibit p53 deacetylation by HDAC1. […] The samples were resolved by SDS-PAGE and analyzed by Western Blot using antibodies for acetylated p53, total p53 (DO-1), HDAC1 and DBC1.
Finally, p53 could also be deacetylated by purified HDAC1 complexes as previously shown (Luo, 2000) (lane 2, FIG. 9); this deacetylase activity was not repressed by DBC1 (lanes 3-4).

Sequence of HDAC1 (Q13547 whole entry, species assumed): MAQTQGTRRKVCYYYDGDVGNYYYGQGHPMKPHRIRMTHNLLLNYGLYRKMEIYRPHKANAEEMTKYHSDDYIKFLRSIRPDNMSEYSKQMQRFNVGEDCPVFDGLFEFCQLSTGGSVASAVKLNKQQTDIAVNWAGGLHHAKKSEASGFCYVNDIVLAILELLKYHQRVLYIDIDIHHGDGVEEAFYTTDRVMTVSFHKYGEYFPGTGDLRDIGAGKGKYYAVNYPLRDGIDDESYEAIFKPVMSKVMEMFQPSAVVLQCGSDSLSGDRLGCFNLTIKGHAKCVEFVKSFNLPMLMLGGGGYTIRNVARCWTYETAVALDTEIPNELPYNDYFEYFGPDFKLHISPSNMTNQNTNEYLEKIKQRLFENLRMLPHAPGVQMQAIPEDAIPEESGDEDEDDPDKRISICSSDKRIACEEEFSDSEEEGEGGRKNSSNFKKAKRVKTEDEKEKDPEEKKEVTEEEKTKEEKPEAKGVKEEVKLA

Row | Compound | SIRT2-mediated deacetylation of acetylated tubulin (SIRT2) | SIRT1-mediated deacetylation of acetylated p53 (SIRT1) | HDAC1-mediated deacetylation of p53 (HDAC1)
1 | NC(=O)c1cccnc1 [nicotinamide, reference compound] | inhibited | – | –
2 | Flag-DBC1: Flag-tagged Deleted in Breast Cancer 1 protein purified by M2 immunoprecipitation under high stringency | not affected | strongly repressed | not repressed
